Experimental data: patent publication US20250092160A1 (published 2025)

T1: Recombinant CD19 (ACROBiosystems Cat #CD9-H52H2) (UniProt P15391 20-291)
T1 construct: also called monovalent CD19
T1 sequence: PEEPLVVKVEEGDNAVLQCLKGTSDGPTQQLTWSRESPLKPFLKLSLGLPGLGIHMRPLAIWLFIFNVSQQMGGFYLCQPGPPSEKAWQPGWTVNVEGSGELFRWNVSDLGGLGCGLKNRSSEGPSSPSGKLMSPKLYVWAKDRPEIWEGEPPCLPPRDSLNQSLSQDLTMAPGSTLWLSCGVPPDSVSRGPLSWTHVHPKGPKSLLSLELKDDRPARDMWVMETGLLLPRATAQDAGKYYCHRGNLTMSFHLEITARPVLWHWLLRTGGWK

T2: Recombinant CD20 (ACROBiosystems Cat #CD0-H52H3) (UniProt P11836 1-297)
T2 construct: also called monovalent CD20
T2 sequence: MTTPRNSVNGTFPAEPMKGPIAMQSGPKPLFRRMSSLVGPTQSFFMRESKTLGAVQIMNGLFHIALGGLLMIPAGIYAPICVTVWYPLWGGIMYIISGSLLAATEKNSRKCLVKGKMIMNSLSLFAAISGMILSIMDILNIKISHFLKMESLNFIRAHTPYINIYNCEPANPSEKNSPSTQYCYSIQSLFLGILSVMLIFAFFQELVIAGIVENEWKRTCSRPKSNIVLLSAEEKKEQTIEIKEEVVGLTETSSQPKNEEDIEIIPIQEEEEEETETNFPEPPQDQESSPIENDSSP

T3: CD32a 131R FcRγIIa (human, UniProt P12318 36-218)
T3 construct: also called Fc gamma RIIa (CD32) (Arg167)
T3 sequence (looked up): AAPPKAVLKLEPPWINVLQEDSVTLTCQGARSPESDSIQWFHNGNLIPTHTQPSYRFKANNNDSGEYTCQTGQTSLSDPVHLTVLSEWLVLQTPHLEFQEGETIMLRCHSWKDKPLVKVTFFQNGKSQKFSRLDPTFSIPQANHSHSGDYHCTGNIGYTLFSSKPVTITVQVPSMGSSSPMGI

T4: CD32b/c FcRγIIb (human, UniProt P31994 46-217)
T4 sequence (looked up): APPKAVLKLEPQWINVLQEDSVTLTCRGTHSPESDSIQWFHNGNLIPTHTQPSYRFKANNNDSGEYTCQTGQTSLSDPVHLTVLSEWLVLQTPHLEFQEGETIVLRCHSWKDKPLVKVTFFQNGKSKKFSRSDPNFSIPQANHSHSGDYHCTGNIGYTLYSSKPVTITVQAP

T5: CD32a 131H FcRγIIa (human, UniProt P12318 36-218)
T5 sequence (looked up): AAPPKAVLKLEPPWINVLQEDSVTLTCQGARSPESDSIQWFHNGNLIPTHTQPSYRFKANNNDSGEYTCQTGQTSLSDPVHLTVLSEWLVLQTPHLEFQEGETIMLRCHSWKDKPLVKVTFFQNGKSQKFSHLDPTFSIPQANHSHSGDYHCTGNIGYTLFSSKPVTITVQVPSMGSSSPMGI

T6: CD19 (Table 9) (UniProt P15391 20-291)
T6 sequence (looked up): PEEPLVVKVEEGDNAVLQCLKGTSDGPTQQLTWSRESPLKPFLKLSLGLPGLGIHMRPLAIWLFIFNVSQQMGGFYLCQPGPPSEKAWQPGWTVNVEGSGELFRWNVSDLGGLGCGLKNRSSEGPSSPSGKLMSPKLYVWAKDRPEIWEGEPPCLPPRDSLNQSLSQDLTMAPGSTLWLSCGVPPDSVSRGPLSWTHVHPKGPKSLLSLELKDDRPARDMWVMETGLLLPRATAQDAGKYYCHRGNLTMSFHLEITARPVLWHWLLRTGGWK


Experiments:
[1] = biological target: T7, CD64 FcRγI (human, UniProt P12314 16-288); test: SPR Carterra LSA
T7 construct: also called Fc gamma RI (CD64)
T7 sequence (P12314 16-288 limits assumed): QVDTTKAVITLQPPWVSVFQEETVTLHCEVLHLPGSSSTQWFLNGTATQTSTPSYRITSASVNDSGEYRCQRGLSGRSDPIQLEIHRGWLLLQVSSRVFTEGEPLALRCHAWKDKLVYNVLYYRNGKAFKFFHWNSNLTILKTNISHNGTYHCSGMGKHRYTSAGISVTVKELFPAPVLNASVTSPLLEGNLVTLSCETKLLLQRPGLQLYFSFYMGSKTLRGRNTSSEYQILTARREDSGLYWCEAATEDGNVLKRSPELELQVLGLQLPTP

[2] = biological target: T8, CD16a 158V FcRγIIIa (human, UniProt P08637 17-208); test: SPR Carterra LSA
T8 construct: also called FcgRIIIa 158 V _ CD 16 a 158 V; Fc gamma RIIIa (CD16a) (Val176)
T8 sequence (P08637 17-208 F176V limits assumed): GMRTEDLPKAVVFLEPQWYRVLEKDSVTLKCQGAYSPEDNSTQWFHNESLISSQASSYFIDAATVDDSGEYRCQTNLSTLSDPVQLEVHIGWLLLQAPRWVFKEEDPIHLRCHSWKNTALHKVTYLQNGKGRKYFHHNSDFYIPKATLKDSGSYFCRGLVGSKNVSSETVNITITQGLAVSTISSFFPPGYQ

[3] = biological target: T1, Recombinant CD19 (ACROBiosystems Cat …); test: SPR Carterra LSA
[4] = biological target: T2, Recombinant CD20 (ACROBiosystems Cat …); test: SPR Carterra LSA
[5] = biological target: T3, CD32a 131R FcRγIIa; test: SPR Carterra LSA
[6] = biological target: CD16b FcRγIIIb (human, UniProt O75015 20-208)
Chain of CD16b FcRγIIIb (O75015 20-208 limits assumed): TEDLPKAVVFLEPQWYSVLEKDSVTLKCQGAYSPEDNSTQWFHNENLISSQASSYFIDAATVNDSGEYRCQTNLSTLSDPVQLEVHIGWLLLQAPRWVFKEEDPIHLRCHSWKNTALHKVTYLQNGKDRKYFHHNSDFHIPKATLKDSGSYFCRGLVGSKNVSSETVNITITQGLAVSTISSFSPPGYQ

[7] = biological target: T7, CD64 FcRγI
[8] = biological target: T4, CD32b/c FcRγIIb
[9] = biological target: T8, CD16a 158V FcRγIIIa
[10] = biological target: T5, CD32a 131H FcRγIIa
[11] = biological target: T3, CD32a 131R FcRγIIa
[12] = biological target: T6, CD19 (Table 9)

Binder	binding result [1]	binding result [2]	binding result [3]	binding result [4]	binding result [5]	Kd [12] [nM]	other results
HB1905 (bispecific antibody, human IgG1, kappa, also called anti-CD20/anti-CD19 bispecific GEM-DIMER) light 1: DIQMTQTTSSLSASLGDRVTISCRASQDISKYLNWYQEKPDGTVKLLIYHTSRLHSGVPSRFSGSGSGTDYSLTISNLEQEDIATYFCQQGNTLPYTFGGGTKLEIKRTVAAPSVFIFPPSDEQLKSGTASVKCLLNNFYPREAKVQWKVDNALQSGNSQESVTEQDSKDSTYSLSSTLTLSKADYEKHKVYACEVTHQGLSSPVTKSFNRGEC heavy 1: EVKLQESGPGLVAPSQSLSVTCTVSGVSLPDYGVSWIRKPPRKGLEWLGVIWGSETTYYNSALKSRLTIIKDNSKSQVFLKMSSLQTDDTAIYYCAKHYYYGGSYAMDYWGQGTSVTVSSASTKGPSVFPLAPSSKSTSGGTAALGCLVKDYFPEPVTVSWNSGALTSGVHTFPAVLQSSGLYSLESVVTVPSSSLGTQTYICNVNHKPSNTKVDKKVEPKSCTDWSPYADQSIKVRISLKSALGDKAYEWNDNEMYLFRSSVAYAMRQYFLKVKNQMILFGEEDVRVANLKPRISFNFFVTAPKNVSDIIPRTEVEKAIRMSRSRINDAFRLNDNSLEFLGIQPTLGPPNQPPVSTSTSPTRSMAPGAVHLPQPVSTRDKTHTCPPCPAPELLGGPSVFLFPPKPKDTLMISRTPEVTCVVVDVSHEDPEVKFNWYVDGVEVHNAKTKPREEQYNSTYRVVSVLTVLHQDWLNGKEYKCKVSNKALPAPIEKTISKAKGQPREPQVCTLPPSRDELTKNQVSLSCAVKGFYPSDIAVEWESNGQPENNYKTTPPVLDSDGSFFLVSKLTVDKSRWQQGNVFSCSVMHEALHNRFTQKSLSLSPG light 2: QVQLQQPGAELVKPGASVKMSCKASGYTFTSYNMHWVKKTPGRGLEWIGAIYPGNGDTSYNQKFKGKATLTADKSSSTAYMQLSSLTSEDSAVYYCARSTYYGGDWYFNVWGAGTLVTVSSASVAAPSVFIFPPSDEQLKSGTASVECLLNNFYPREAKVQWKVDNALQSGNSQESVTEQDSKDSTYSLSSTLTLSKADYEKHKVYACEVTHQGLSSPVTKSFNRGEC heavy 2: not shown	binds	binds	binds	binds	binds	–	–
HB1906 (bispecific antibody, human IgG1, kappa, also called anti-CD20/anti-CD19 bispecific GEM-DIMER) light 1: DIQMTQTTSSLSASLGDRVTISCRASQDISKYLNWYQEKPDGTVKLLIYHTSRLHSGVPSRFSGSGSGTDYSLTISNLEQEDIATYFCQQGNTLPYTFGGGTKLEIKRTVAAPSVFIFPPSDEQLKSGTASVKCLLNNFYPREAKVQWKVDNALQSGNSQESVTEQDSKDSTYSLSSTLTLSKADYEKHKVYACEVTHQGLSSPVTKSFNRGEC heavy 1: EVKLQESGPGLVAPSQSLSVTCTVSGVSLPDYGVSWIRKPPRKGLEWLGVIWGSETTYYNSALKSRLTIIKDNSKSQVFLKMSSLQTDDTAIYYCAKHYYYGGSYAMDYWGQGTSVTVSSASTKGPSVFPLAPSSKSTSGGTAALGCLVKDYFPEPVTVSWNSGALTSGVHTFPAVLQSSGLYSLESVVTVPSSSLGTQTYICNVNHKPSNTKVDKKVEPKSCTDWSPYADQSIKVRISLKSALGDKAYEWNDNEMYLFRSSVAYAMRQYFLKVKNQMILFGEEDVRVANLKPRISFNFFVTAPKNVSDIIPRTEVEKAIRMSRSRINDAFRLNDNSLEFLGIQPTLGPPNQPPVSTSTSPTRSMAPGAVHLPQPVSTRDKTHTCPPCPAPELLGGPSVFLFPPKPKDTLMISRTPEVTCVVVDVSHEDPEVKFNWYVDGVEVHNAKTKPREEQYNSTYRVVSVLTVLHQDWLNGKEYKCKVSNKALPAPIEKTISKAKGQPREPQVCTLPPSRDELTKNQVSLSCAVKGFYPSDIAVEWESNGQPENNYKTTPPVLDSDGSFFLVSKLTVDKSRWQQGNVFSCSVMHEALHNRFTQKSLSLSPG light 2: QVQLQQPGAELVKPGASVKMSCKASGYTFTSYNMHWVKETPGRGLEWIGAIYPGNGDTSYNQKFKGKATLTADKSSSTAYMQLSSLTSEDSAVYYCARSTYYGGDWYFNVWGAGTLVTVSSASVAAPSVFIFPPSDEQLKSGTASVECLLNNFYPREAKVQWKVDNALQSGNSQESVTEQDSKDSTYSLSSTLTLSKADYEKHKVYACEVTHQGLSSPVTKSFNRGEC heavy 2: not shown	binds	binds	binds	binds	binds	–	–
Rituxan (antibody) VH: not shown VL: QIVLSQSPAILSASPGEKVTMTCRASSSVSYIHWFQQKPGSSPKPWIYATSNLASGVPVRFSGSGSGTSYSLTISRVEAEDAATYYCQQWTSNPPTFGGGTKLEIKRTVAAPSVFIFPPSDEQLKSGTASVVCLLNNFYPREAKVQWKVDNALQSGNSQESVTEQDSKDSTYSLSSTLTLSKADYEKHKVYACEVTHQGLSSPVTKSFNRGEC	–	–	–	–	–	–	Kd [6]: 1530 nM; Kd [7]: 52.8 nM; Kd [8]: 1520 nM; Kd [9]: 715 nM; Kd [10]: 892 nM; Kd [11]: 1250 nM
B19c66 (antibody, human IgG1, kappa) light: not shown heavy: not shown CPPCPAPELLGGPSVFLFPPKPKDTLMISRTPEVTCVVVDVSHEDPEVKFNWYVDGVEVHNAKTKPREEQYNSTYRVVSVLTVLHQDWLNGKEYKCKVSNKALPAPIEKTISKAKGQPREPQVYVYPPSRDELTKNQVSLTCLVKGFYPSDIAVEWESNGQPENNYKTTPPVLDSDGSFALVSKLTVDKSRWQQGNVFSCSVMHEALHNHYTQKSLSLSPGK	–	–	–	–	–	21.8	–
B19c66AAC9 (antibody, human IgG1, kappa) light: not shown heavy: QVQLQQSGAELVRPGSSVKISCKASGYAFSSYWMNWVKQRPGQGLEWIGQIWPGDGDTNYNGKFKGKATLTADESSSTAYMQLSSLASEDSAVYFCARRETTTVGRYYYAMDYWGQGTTVTVSSASTKGPSVFPLAPSSKSTSGGTAALGCLVKDYFPEPVTVSWNSGALTSGVHTFPAVLQSSGLYSLSSVVTVPSSSLGTQTYICNVNHKPSNTKVDKKVEPKSCDKTHTCPPCPAPKRRGGPSVFLFPPKPKDTLMISRTPEVTCVVVDVSHEDPEVKFNWYVDGVEVHNAKTKPREEQYNSTYRVVSVLTVLHQDWLNGKEYKCKVSNKALPAPIEKTISKAKGQPREPQVYVLPPSRDELTKNQVSLLCLVKGFYPSDIAVEWESNGQPENNYLTWPPVLDSDGSFFLYSKLTVDKSRWQQGNVFSCSVMHEALHNHYTQKSLSLSPGK CPPCPAPEDEGGPSVFLFPPKPKDTLMISRTPEVTCVVVDVSHEDPEVKFNWYVDGVEVHNAKTKPREEQYNSTYRVVSVLTVLHQDWLNGKEYKCKVSNKALPAPIEKTISKAKGQPREPQVYVYPPSRDELTKNQVSLTCLVKGFYPSDIAVEWESNGQPENNYKTTPPVLDSDGSFALVSKLTVDKSRWQQGNVFSCSVMHEALHNHYTQKSLSLSPGK	–	–	–	–	–	21	–
